Results on three molecules are retold here after patent publication US20210332138A1 (published 2021).

Read-outs that look alike come from different tables or passages of the source.

Assay [1] addresses T1, hPDL1-Fc fusion protein (human, UniProt Q9NZQ7 19-238). Briefly: ELISA.
Assay [2] concerns the target T2, hPDL1 expressed on 293T cells (human, UniProt Q9NZQ7 19-290). Briefly: FACS.
In assay [3] the target is T1, hPDL1-Fc fusion protein. Briefly: receptor blocking ELISA; hPDL1-Fc coated.
In assay [4] the target is T1, hPDL1-Fc fusion protein. The assay can be described thus: RBA; PDL1 coated.
Assay [5] addresses T1, hPDL1-Fc fusion protein. The assay can be described thus: receptor blocking ELISA; hPD1-Fc coated.
Assay [6] deals with T1, hPDL1-Fc fusion protein. The assay can be described thus: RBA; PD1 coated.
The target of assay [7] is T1, hPDL1-Fc fusion protein. The assay can be described thus: ELISA; FIG. 11B.
Assay [8] has as its target T1, hPDL1-Fc fusion protein. Briefly: BIAcore.
Assay [9] has as its target T1, hPDL1-Fc fusion protein. The assay can be described thus: ELISA; FIG. 11C.
Assay [10] deals with T2, hPDL1 expressed on 293T cells. Briefly: FACS. The source holds these as a separate data set.

T2 sequence (Q9NZQ7 19-290): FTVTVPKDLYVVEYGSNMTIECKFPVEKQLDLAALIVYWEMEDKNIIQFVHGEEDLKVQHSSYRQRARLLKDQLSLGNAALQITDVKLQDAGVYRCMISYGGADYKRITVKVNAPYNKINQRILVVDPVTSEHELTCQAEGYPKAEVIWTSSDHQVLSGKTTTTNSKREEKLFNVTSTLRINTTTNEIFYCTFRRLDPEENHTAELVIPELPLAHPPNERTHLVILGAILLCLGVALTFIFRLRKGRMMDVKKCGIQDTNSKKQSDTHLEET
T1 sequence (Q9NZQ7 19-238): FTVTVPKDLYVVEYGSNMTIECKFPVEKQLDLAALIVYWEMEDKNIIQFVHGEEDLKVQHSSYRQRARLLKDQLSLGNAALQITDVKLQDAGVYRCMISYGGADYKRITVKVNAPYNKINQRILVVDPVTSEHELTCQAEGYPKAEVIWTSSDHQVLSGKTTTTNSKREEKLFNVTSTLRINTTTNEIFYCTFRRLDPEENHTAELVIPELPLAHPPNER

B1: full-length antibody 3-1E4 (antibody, V domains shown)
VH: QIQLVQSGAEVKKPGSSVKVSCKASGGTFSSYAISWVRQAPGQGLEWMGGIIPIFGTANYAQKFQGRVTITADKSTSTAYMELSSLRSEDTAVYYCAGGGAVADNSYWGQGTLVTVSS
VL: DIRMTQSPSSLSASVGDRVTITCRASQGIRNDLGWYQQKPGKAPKLLIYAASSLQSGVPSRFSGSGSGTDFTLTISSLQPEDFATYYCLQDYNYPRTFGQGTKVEIK
As to B1, the half-maximal effective concentration (EC50) in assay [1] amounted to 0.9 nM; in assay [2], 3.15 nM; in assay [7], 0.9 nM. Moreover, the IC50 worked out at 92.7 nM in [3], 16.6 nM in assay [4], 16.6 nM in assay [5] and 92.7 nM in assay [6].

B2: full-length antibody 4-1E8 (antibody, V domains shown)
VH: QIQLVQSGAEVKMPGASVTISCEASGYNFISYYIHWVRQAPGQGLEWMGFVVPSGGAAGYTQKFQGRLTVTRDTSTSTVYMDLNSLTSDDTAVYYCVREMSGGWFDFWGQGTLVTVSS
VL: DIVMTQSPSSLSASVGDRVTITCRASQGIRNDLGWYQQKPGKAPKLLIYAASTLQSGVPSRFSGSGSGTDFTLTISSLQAEDVAVYYCQQYYSTPLTFGPGTKVDIK
For the molecule B2, the EC50 in assay [1] was found to be 0.0391 nM; in assay [2], 0.356 nM; in assay [7], 0.0391 nM; in [9], 0.0247 nM. The IC50 in [3] was 1.26 nM; in assay [4], 1.53 nM; in assay [5] it was 1.53 nM; in assay [6], 1.26 nM. In assay [8], this molecule had a Kd of 4.46 nM.

B3: full-length antibody 3-1B11 (antibody, V domains shown)
VH: EVQLVESGGGLVQPGGSLRLSCAASGFTFSDYDMIWVRQAPGKGLEWVAVISYDGSNKYYADSVKGRFTISRDNSKNTLYLQMNSLRAEDTAVYYCAKEFFGAFDIWGQGTMVTVSS
VL: SSELTQDPAVSVALGQTVTITCQGDSLNYYYANWFQLKPGQAPVLVLFGKNNRPSGIPDRFSGSYSGSTASLTITGAQAEDDADYYCNSRDSGGNPWVFGGGTKLTVL
For the molecule B3, the EC50 was found to be 0.018 nM in [1], 0.132 nM in assay [2], 0.018 nM in assay [9] and 0.132 nM in assay [10]. Moreover, the IC50 in assay [4] amounted to 0.795 nM; in assay [6], 1.39 nM. This molecule also yielded a Kd in [8] of 2.32 nM.
